Among the data in the Immune Epitope Database (IEDB) are Kd values, retold here.

pKd: −log10 of the molar value.

The target of one test is HLA-B*27:05. The test can be described thus: IEDB peptide-MHC binding, purified MHC/direct/fluorescence; filed as Kd, often an IC50 or EC50 that approximates it; ≥ and ≤ were set here for values at or beyond the usual limits of such assays. The following applies: source organism: Homo sapiens.
For the next test, the target named is HLA-A*69:01. Described as above.
A further test concerns the target HLA-A*11:01. Described as above.
The target in another test is HLA-B*58:01. Described as above. The following applies: source organism: SARS-CoV1.
Another test addresses HLA-B*15:01. Described as above.
For the next test, the target named is HLA-A*02:03. The test can be described thus: IEDB peptide-MHC binding, purified MHC/competitive/radioactivity; filed as Kd, often an IC50 or EC50 that approximates it; ≥ and ≤ were set here for values at or beyond the usual limits of such assays.
The target of the next test is HLA-A*02:06. Described as above.
In the next test the target is HLA-A*02:02. The test is described as above.
The target in a further test is HLA-A*02:01. The test can be described thus: IEDB peptide-MHC binding, purified MHC/direct/fluorescence; filed as Kd, often an IC50 or EC50 that approximates it; ≥ and ≤ were set here for values at or beyond the usual limits of such assays.
The next test addresses HLA-A*31:01. The description is as above.
The next test has as its target HLA-A*03:01. Described as above. The following applies: source organism: Entamoeba histolytica HM-1:IMSS.
The target of the next test is HLA-B*07:02. The test is described as above. The following applies: source organism: Brucella suis.
Where [1] appears, read: source organism: Vaccinia virus WR.
The mark [2] stands for this setting: source organism: Vibrio cholerae.
The mark [3] stands for this setting: source organism: Bacillus anthracis.
[4] abbreviates: source organism: Vaccinia virus Copenhagen.
Setting [5] is: source organism: Mammarenavirus whitewaterense.
Where [6] appears, read: source organism: Pseudomonas aeruginosa.
[7] abbreviates: source organism: SARS coronavirus Tor2.
Setting [8] is: source organism: Mammarenavirus tacaribeense.

As to AHSTIMPRL, the results for the negative logarithm of the Kd (pKd) in the test with HLA-B*27:05 and in the test with HLA-A*69:01 (source organism: Homo sapiens) were 5.06 and 6.08, respectively.
Consider ASHFISNSW, for which the pKd is no more than 4.28 with HLA-A*11:01 (source organism: SARS-CoV1), 7.14 in the test with HLA-B*58:01 and 4.94 with HLA-B*15:01 (source organism: SARS-CoV1).
Turning to FVATFRDMLL, the negative-log Kd (pKd) in the test with HLA-A*02:03 (setting [1]) was 7.75; with HLA-A*02:06 (setting [1]), 8.36; with HLA-A*02:02 (setting [1]), 9.16.
In the same order, the values of GIKGLDERFV are 6.07, 6.03 and 5.21.
Taken in the same sequence, the figures for GLYIPGTSV were 7.78, 5.76 and 6.95.
Regarding GVSGLYIPGT, the results for the pKd with HLA-A*02:03 (setting [1]), in the test with HLA-A*02:06 (setting [1]) and with HLA-A*02:02 (setting [1]) were 5.67, 7.50 and 6.85, respectively.
For ILGTVSWNL, the results for the pKd with HLA-A*02:01 (source organism: SARS-CoV1), with HLA-B*58:01 and with HLA-A*69:01 (source organism: SARS-CoV1) were 6.42, 6.09 and no more than 4.64, respectively.
For IMEIVSHLRA, the pKd with HLA-A*02:03 (setting [1]) is 6.40; in the test with HLA-A*02:06 (setting [1]) it was 5.36; with HLA-A*02:02 (setting [1]), 6.02.
Taken in the same sequence, the figures for IMRNFLRSIA were 6.91, 6.26 and 7.22.
In the same order, the values of KIDILQMREI are 6.38, 6.06 and 5.89.
Consider KINNNRIVAM, for which the pKd in the test with HLA-A*02:03 (setting [1]) is 5.89; in the test with HLA-A*02:06 (setting [1]), 5.50; with HLA-A*02:02 (setting [1]), 5.04.
As for KIQLFSDFTI, the pKd with HLA-A*02:03 (setting [1]) is no more than 4.15; in the test with HLA-A*02:06 (setting [1]), no more than 4.16; in the test with HLA-A*02:02 (setting [1]), no more than 4.15.
Consider KLSNAKWLA, for which the figures for the pKd with HLA-A*31:01 (setting [2]), with HLA-A*02:01 (setting [2]) and with HLA-B*15:01 (setting [2]) were 5.79, 6.38 and 5.79, respectively.
Consider KMNNDVFFM, for which the pKd was 8.64 in the test with HLA-A*02:01 (setting [3]) and 6.21 in the test with HLA-A*69:01 (setting [3]).
As for KVTVPTNDHI, the figures for the pKd in the test with HLA-A*02:03 (setting [1]), with HLA-A*02:06 (setting [1]) and with HLA-A*02:02 (setting [1]) were 5.91, 5.44 and 5.33, respectively.
Take KYWRQMIIK: the negative logarithm of the Kd (pKd) in the test with HLA-A*31:01 (source organism: Entamoeba histolytica HM-1:IMSS) is 7.60; with HLA-A*03:01, no more than 4.70.
Take LAYYNSCMLT: the pKd with HLA-A*02:03 (setting [1]) is 7.80; with HLA-A*02:06 (setting [1]), 7.06; with HLA-A*02:02 (setting [1]), 7.92.
Turning to LIAGIILLIL, the negative-log Kd (pKd) is 6.17 with HLA-A*02:03 (setting [4]), 6.46 with HLA-A*02:06 (setting [4]) and 6.85 with HLA-A*02:02 (setting [4]).
In the case of LMELPVKTDI, the pKd with HLA-A*02:03 (setting [1]) is 6.01; with HLA-A*02:06 (setting [1]) it was 4.89; in the test with HLA-A*02:02 (setting [1]), 5.82.
LNASYITPYV: the negative logarithm of the Kd (pKd) in the test with HLA-A*02:03 (setting [5]) was 5.97; in the test with HLA-A*02:06 (setting [5]) it was 7.42; in the test with HLA-A*02:02 (setting [5]), 7.48.
Take LQKVPHTRY: the pKd with HLA-A*31:01 (setting [6]) was 4.76; with HLA-B*15:01 (setting [6]), 6.32.
Consider LTLKPCHAL, for which the pKd with HLA-A*11:01 (source organism: Brucella suis) is 4.74; with HLA-A*02:01 (source organism: Brucella suis) it was 5.32; with HLA-A*69:01 (source organism: Brucella suis), 6.26; with HLA-B*07:02, 5.71.
For the sequence LTNAISSRV, the values for the pKd in the test with HLA-A*02:03 (setting [1]), in the test with HLA-A*02:06 (setting [1]) and with HLA-A*02:02 (setting [1]) were 7.73, 6.84 and 6.84, respectively.
On to MLIIFWFSL, for which the negative-log Kd (pKd) with HLA-A*02:03 (setting [7]) was 4.89; with HLA-A*02:06 (setting [7]) it was 6.31; in the test with HLA-A*02:02 (setting [7]), 6.88.
On to MNNVVQALT, for which the results for the negative-log Kd (pKd) with HLA-A*02:03 (setting [8]), with HLA-A*02:06 (setting [8]) and in the test with HLA-A*02:02 (setting [8]) were no more than 4.67, no more than 4.11 and 5.64, respectively.
In the case of MVMCGGSLYV, the values for the negative-log Kd (pKd) with HLA-A*02:03 (setting [7]), with HLA-A*02:06 (setting [7]) and with HLA-A*02:02 (setting [7]) were 7.99, 7.88 and 7.82, respectively.
NILGGVLHT: the pKd with HLA-A*02:03 (setting [1]) was no more than 4.69; with HLA-A*02:06 (setting [1]), 5.00; with HLA-A*02:02 (setting [1]) it was no more than 4.11.
Taken in the same sequence, the figures for NITHTNITTL were 5.30, 5.09 and 4.98.
In the same order, the values of NIYRLFTRCA are 6.86, 7.64 and 5.00.
On to NLETYTRPEI, for which the figures for the pKd with HLA-A*02:03 (setting [1]), with HLA-A*02:06 (setting [1]) and in the test with HLA-A*02:02 (setting [1]) were 5.82, 6.20 and 6.27, respectively.
Taken in the same sequence, the figures for NLLEQLIENI were 5.84, 6.40 and 6.08.
Taken in the same sequence, the figures for NTISGNIYSA were 6.50, 6.41 and 6.57.
